Data: patent US20090232794A1 (published 2009)

What was measured:
[1] = target: T1, purified human C1q protein (human, UniProt P02745 23-245; P02746 28-253; P02747 29-245); experiment: purified human C1q on transfected COS7 cells, anti-C1q-FITC immunofluorescence
Protocol: COS7 cells were transfected with cDNA's encoding full-length NgR or PirB. […] Cells were washed four times with Hank's Buffered Saline Solution (HBSS), fixed for five minutes with 2% paraformaldehyde, washed four times with HBSS, and blocked for 15 minutes with 10% heat-inactivated goat serum (RIGS) in HBSS. […] Immunofluorescence was detected using a Zeiss Axioskop fluorescence microscope.

[2] = target: T1, purified human C1q protein; experiment: purified human C1q on transfected cells, anti-C1q-FITC immunofluorescence

T1 sequence (P02745 23-245, chain 1 of 3): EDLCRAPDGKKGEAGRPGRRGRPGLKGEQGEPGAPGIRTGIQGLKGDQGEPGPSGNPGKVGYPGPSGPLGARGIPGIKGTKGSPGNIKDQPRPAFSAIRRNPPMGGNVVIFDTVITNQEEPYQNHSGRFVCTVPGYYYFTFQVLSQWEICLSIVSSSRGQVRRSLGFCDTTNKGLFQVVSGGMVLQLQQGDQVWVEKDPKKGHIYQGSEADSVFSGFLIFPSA
T1 sequence (P02746 28-253, chain 2 of 3): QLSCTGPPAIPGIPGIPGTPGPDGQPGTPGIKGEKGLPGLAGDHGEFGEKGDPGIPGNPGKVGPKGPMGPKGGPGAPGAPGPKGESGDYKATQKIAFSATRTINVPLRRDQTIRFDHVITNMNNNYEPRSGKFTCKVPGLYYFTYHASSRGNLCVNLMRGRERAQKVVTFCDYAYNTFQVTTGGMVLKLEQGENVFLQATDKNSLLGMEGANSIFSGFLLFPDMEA
T1 sequence (P02747 29-245, chain 3 of 3): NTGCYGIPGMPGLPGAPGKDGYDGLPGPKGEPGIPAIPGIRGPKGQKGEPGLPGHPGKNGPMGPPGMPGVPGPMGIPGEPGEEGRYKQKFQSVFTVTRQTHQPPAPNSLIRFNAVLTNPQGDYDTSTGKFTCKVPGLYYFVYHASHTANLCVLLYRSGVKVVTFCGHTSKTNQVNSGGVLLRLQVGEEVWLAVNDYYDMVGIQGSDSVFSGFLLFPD

Row | binding result [1] | binding result [2] | Binder
1 | binds |  | PirB (paired-immunoglobulin-like receptor B), full-length, expressed on transfected COS7 cells (receptor, COS7 cells were transfected with cDNA encoding full-length PirB; In the antibody outgrowth assays the target is the PirB of mouse neurons) SLPKPILRVQPDSVVSRWTKVTFFCEETIGANEYRLYKDGKLYKTVTKNKQKPANKAEFSLSNVDLRNAGQYRCSYSTQYKSSGYSDPLELVVTGDYWTPSLLAQASPVVTSGGYVTLQCESWHNDHKFILTVEGPQKLSWTQDSQYNYSTRKYHALFSVGPVTPNQRWICRCYSYDRNRPYVWSPPSESVELLVSGNLQKPTIKAEPGPVIASKRAMTIWCQGNLDAEVYFLHNEGSQKTQSTQTLQQPGNKGKFFIPSMTRQHAGQYRCYCYGSAGWSQPSDTLELVVTGIYEHYKPRLSVLPSPVVTAGGNMTLHCASDFHYDKFILTKEDKKFGNSLDTEHISSSRQYRALFIIGPTTPTHTGTFRCYGYFKNAPQLWSVPSDLQQILISGLSKKPSLLTHQGHILDPGMTLTLQCYSDINYDRFALHKVGGADIMQHSSQQTDTGFSVANFTLGYVSSSTGGQYRCYGAHNLSSEWSASSEPLDILITGQLPLTPSLSVKPNHTVHSGETVSLLCWSMDSVDTFILSKEGSAQQPLRLKSKSHDQQSQAEFSMSAVTSHLSGTYRCYGAQNSSFYLLSSASAPVELTVSGPIETSTPPPTMSMPLGGLHMYLKALIGVSVAFILFLFILIFILLRRRHRGKFRKDVQKEKDLQLSSGAEEPITRKGELQKRPNPAAATQEESLYASVEDMQTEDGVELNSWTPPEEDPQGETYAQVKPSRLRKAGHVSPSVMSREQLNTEYEQAEEGQGANNQAAESGESQDVTYAQLCSRTLRQGAAASPLSQAGEAPEEPSVYATLAAARPEAVPKDVEQ
2 |  | binds | LILRB2, expressed on transfected COS7 cells (receptor, also called ILT4; LIR2) QTGTIPKPTLWAEPDSVITQGSPVTLSCQGSLEAQEYRLYREKKSASWITRIRPELVKNGQFHIPSITWEHTGRYGCQYYSRARWSELSDPLVLVMTGAYPKPTLSAQPSPVVTSGGRVTLQCESQVAFGGFILCKEGEDEHPQCLNSQPHARGSSRAIFSVGPVSPNRRWSHRCYGYDLNSPYVWSSPSDLLELLVPGVSKKPSLSVQPGPVVAPGESLTLQCVSDVGYDRFVLYKEGERDLRQLPGRQPQAGLSQANFTLGPVSRSYGGQYRCYGAYNLSSEWSAPSDPLDILITGQIHGTPFISVQPGPTVASGENVTLLCQSWRQFHTFLLTKAGAADAPLRLRSIHEYPKYQAEFPMSPVTSAHAGTYRCYGSLNSDPYLLSHPSEPLELVVSGPSMGSSPPPTGPISTPAGPEDQPLTPTGSDPQSGLGRHLGVVIGILVAVVLLLLLLLLLFLILRHRRQGKHWTSTQRKADFQHPAGAVGPEPTDRGLQWRSSPAADAQEENLYAAVKDTQPEDGVEMDTRAAASEAPQDVTYAQLHSLTLRRKATEPPPSQEREPPAEPSIYATLAIH
